Measurements taken from patent US6348311B1, “ATM kinase modulation for screening and therapies” (St. Jude Childre's Research Hospital, priority 1999, dated 2002).

How the values were obtained:
ATM kinase [1] = experiment: ATM immunoprecipitated from SY5Y neuroblastoma cells after IGF-I, in vitro kinase assay with GST-p53; format: cell-based; details: differentiated SY5Y cells, 10nM IGF-I
Experimental: Since the growth factor and survival factor insulin-like growth factor (IGF)-I activates cellular signaling in a manner similar to insulin, the insulin observations above led us to also investigate whether IGF-I might activate ATM kinase. […] Undifferentiated and differentiated SY5Y cells were treated with IGF-I and ATM activation was assessed.
ATM was immunoprecipitated from either undifferentiated or differentiated SY5Y neuroblastoma cells after treatment with 10nM IGF-I (control cells were untreated). The immunoprecipitated ATM was then used in an in vitro kinase assay with the GST-p53 protein as the substrate. Equivalent amounts of ATM and GST-p53 were used.

ATM kinase [2] = experiment: ATM immunoprecipitated from differentiated 3T3-L1 cells with or without insulin, in vitro kinase assay with GST-4E-BP1; format: cell-based; details: GST-4E-BP1 substrate
Description: ATM was immunoprecipitated from 3T3-L1 after differentiation and without (−) or with (+) exposure to insulin. The immunoprecipitated ATM was then used in an in vitro kinase assay with GST-4E-BP1 protein as the substrate. Equivalent amounts of ATM and GST-4E-BP1 were used.

4E-BP1 bound to eIF-4E = experiment: Insulin induced release of 4E-BP1 from eIF-4E in fibroblasts (Western blot); format: cell-based, mice
Experimental: Fibroblasts from normal or AT mice were treated with (+) or without (−) insulin and total cellular and complexed eIF-4E and 4E-BP1 were examined by Western blot. Total cellular eIF-4E and 4E-BP1 were unchanged by insulin treatment. The amount of 4E-BP1 bound to eIF-4E was examined by immunoprecipitating eIF-4E with a methyl-G column and then blotting for both proteins.

Substance | ATM kinase activity after IGF-I treatment (ATM kinase [1]) | ATM kinase activity after insulin treatment (ATM kinase [2]) | release of 4E-BP1 from eIF-4E (4E-BP1 bound to eIF-4E; AT cells (A38)) | release of 4E-BP1 from eIF-4E (4E-BP1 bound to eIF-4E; normal cells (A29))
IGF-I: insulin-like growth factor (IGF)-I, growth and neuronal survival factor | significantly enhanced |  |  | 
Insulin: insulin |  | significantly enhanced | much less 4E-BP1 was released | caused a release of 4E-BP1 from eIF-4E
